B1: unnamed (protein)
chain: MDGVLWRVRTAALMAALLALAAWALVWASPSVEAQSNPYQRGPNPTRSALTADGPFSVATYTVSRLSVSGFGGGVIYYPTGTSLTFGGIAMSPGYTADASSLAWLGRRLASHGFVVLVINTNSRFDYPDSRASQLSAALNYLRTSSPSAVRARLDANRLAVAGHSMGGGGTLRIAEQNPSLKAAVPLTPWHTDKTFNTSVPVLIVGAEADTVAPVSQHAIPFYQNLPSTTPKVYVELDNASHFAPNSNNAAISVYTISWMKLWVDNDTRYRQFLCNVNDPALSDFRTNNRHCQ
B2: unnamed (protein)
chain: MNFPRASRLMQAAVLGGLMAVSAAATAQTNPYARGPNPTAASLEASAGPFTVRSFTVSRPSGYGAGTVYYPTNAGGTVGAIAIVPGYTARQSSIKWWGPRLASHGFVVITIDTNSTLDQPSSRSSQQMAALRQVASLNGTSSSPIYGKVDTARMGVMGWSMGGGGSLISAANNPSLKAAAPQAPWDSSTNFSSVTVPTLIFACENDSIAPVNSSALPIYDSMSRNAKQFLEINGGSHSCANSGNSNQALIGKKGVAWMKRFMDNDTRYSTFACENPNSTRVSDFRTANCS
B3: unnamed (protein)
chain: MAENPYERGPAPTTSSIEASRGSFATSTVTVSRLAVSGFGGGTIYYPTSTTAGTFGAISIAPGFTALQSSIAWLGPRLASQGFVVFTIDTLTTSDQPDSRGRQLLAALDYLTQQSSVRSRIDSSRLGVVGHSMGGGGTLEAARSRPSLQAAIPLTGWNLTKTWSTVRVPTLVVGAQADTVAPVASHSIPFYNSLPSSLDKAYLELRGASHFAPNSSNTTIAKYTLSWLKRFIDNDTRYEQFLCPIPSTSLSISDYRGNCPHNG

Tests used:
PET [1] = experiment: Proxy for plastic degradation [Released monomer concentration (HPLC/LC-MS) (TPA+MHET+BHET)] (µmol TPA-EG / mg enzyme / day); conditions: pH 8
PET [2] = experiment: Proxy for plastic degradation [Released monomer concentration (UHPLC) (TPA+MHET+BHET, as TPA-EG units)] (µmol TPA-EG/mg enzyme/day); conditions: pH 8
pNP-C12 = conditions: pH 8; 30 °C
[3] = substrate: Polyester-polyurethane (Impranil DLN); experiment: Proxy for plastic degradation [Proton (H+) release, phenol red pH-indicator assay]; conditions: 40 °C

| Protein | Proxy for plastic degradation (PET [1]) | Proxy for plastic degradation (PET [2]; 50 °C) | Proxy for plastic degradation (PET [1]; part of the chain shown) | Proxy for plastic degradation (PET [2]; 30 °C, part of the chain shown) | Km (pNP-C12) [µM] | kcat (pNP-C12) [s⁻¹] | kcat/Km (pNP-C12) [M⁻¹ s⁻¹] | Proxy for plastic degradation [3] [µM] | Proxy for plastic degradation (PET [2]; 40 °C) |
| --- | --- | --- | --- | --- | --- | --- | --- | --- | --- |
| B1 | 12.8 | 12.8 |  |  |  |  |  |  |  |
| B2 |  |  | 4.33 | 4.33 |  |  |  |  |  |
| B3 | 0.17 |  |  |  | 730 | 8.26 | 11300 | 790 | 0.17 |
